Numbering of substitutions follows the chain as printed.
Biological target: PXR:RXRa (Homo sapiens, UniProt O75469;P19793 full;full)
Experiment: no ligand; PBM; 270 nM : 90 nM RXRa; PBS pH 7.4, 2% milk, 0.02% Triton X-100, 1 mM DTT, BSA, 0.4 mg/ml salmon testes DNA
Conditions: tags: His kept;His cleaved; copies: 1;1; label: surface-attached array probe
Summary of the method: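 The probes on custom Agilent 4×180K protein-binding microarrays were double-stranded, with 34-nt variable regions bearing direct-repeat seeds, single-nucleotide variants, half-site ablations and random human genomic background sequences. Incubation lasted 1 h with ligand-free nuclear receptor dimers in PBS pH 7.4, 2% milk, 0.02% Triton X-100, 1 mM DTT, 0.2 mg/mL BSA and 0.4 mg/ml salmon testes DNA. Antibodies against each partner (one per run) detected bound dimers, and fluorescence scans were regression-normalized. Binding z-scores take the random background probes as reference.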

Sequence of PXR:RXRa (O75469 whole entry, chain 1 of 2): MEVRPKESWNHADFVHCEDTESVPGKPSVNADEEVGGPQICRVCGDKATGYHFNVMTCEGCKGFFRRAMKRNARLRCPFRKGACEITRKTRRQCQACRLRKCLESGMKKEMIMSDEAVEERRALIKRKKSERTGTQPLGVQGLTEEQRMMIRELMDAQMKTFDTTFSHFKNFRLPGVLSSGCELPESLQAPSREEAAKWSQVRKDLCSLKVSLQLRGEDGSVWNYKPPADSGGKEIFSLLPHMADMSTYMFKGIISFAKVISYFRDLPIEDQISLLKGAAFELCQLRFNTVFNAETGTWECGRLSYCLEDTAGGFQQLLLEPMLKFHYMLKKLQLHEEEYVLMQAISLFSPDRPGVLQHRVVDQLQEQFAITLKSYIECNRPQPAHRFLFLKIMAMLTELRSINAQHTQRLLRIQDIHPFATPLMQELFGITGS
Sequence of PXR:RXRa (P19793 whole entry, chain 2 of 2): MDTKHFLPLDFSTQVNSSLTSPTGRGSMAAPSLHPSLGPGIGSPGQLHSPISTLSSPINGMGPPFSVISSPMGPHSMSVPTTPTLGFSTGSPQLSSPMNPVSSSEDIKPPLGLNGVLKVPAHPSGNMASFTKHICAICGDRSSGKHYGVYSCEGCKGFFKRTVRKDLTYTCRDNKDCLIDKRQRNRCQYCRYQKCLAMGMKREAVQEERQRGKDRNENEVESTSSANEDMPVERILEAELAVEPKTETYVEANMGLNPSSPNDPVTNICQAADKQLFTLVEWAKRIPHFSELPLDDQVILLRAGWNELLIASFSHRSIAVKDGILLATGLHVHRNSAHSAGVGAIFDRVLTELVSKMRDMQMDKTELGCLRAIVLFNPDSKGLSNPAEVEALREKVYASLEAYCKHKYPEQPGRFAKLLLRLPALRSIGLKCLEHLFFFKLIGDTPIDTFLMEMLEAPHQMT

B1: NRC3_wobSeed65_DR2_T12A_o1 (dsDNA)
DNA 1: GCATATGTAGGATATCGGGTCATTCAGTTTGCGCATGCGATTGACAGCGTAGAATGAAGG
DNA 2: CCTTCATTCTACGCTGTCAATCGCATGCGCAAACTGAATGACCCGATATCCTACATATGC
- binding signal: 3.03 PBM z-score against 500 random probes

B2: NRC3_wobSeed72_DR2_o1 (dsDNA)
DNA 1: GCTCGAGTAGGTTACGGGGGCATTCAGGGATGAAGAGCGATTGACAGCGTAGAATGAAGG
DNA 2: CCTTCATTCTACGCTGTCAATCGCTCTTCATCCCTGAATGCCCCCGTAACCTACTCGAGC
- binding signal: 3.16 PBM z-score against 500 random probes

B3: NRC3_wobSeed72_DR2_G16T_o1 (dsDNA)
DNA 1: B2 DNA 1 with G16T
DNA 2: B2 DNA 2 with C45A
- binding signal: 0.31 PBM z-score against 500 random probes

B4: NRC3_wobSeed72_DR2_G17C_o1 (dsDNA)
DNA 1: B2 DNA 1 with G17C
DNA 2: B2 DNA 2 with C44G
- binding signal: 0.24 PBM z-score against 500 random probes

B5: NRC3_wobSeed72_DR2_T24C_o1 (dsDNA)
DNA 1: B2 DNA 1 with T24C
DNA 2: B2 DNA 2 with A37G
- binding signal: 3.05 PBM z-score against 500 random probes

B6: NRC3_wobSeed53_DR2_T12C_o1 (dsDNA)
DNA 1: GCCCTTACGGGCCACGAGGTTATAGCACGACGAGCGGCGATTGACAGCGTAGAATGAAGG
DNA 2: CCTTCATTCTACGCTGTCAATCGCCGCTCGTCGTGCTATAACCTCGTGGCCCGTAAGGGC
- binding signal: 0.44 PBM z-score against 500 random probes

B7: NRC3_wobSeed120_DR4_A14C_o1 (dsDNA)
DNA 1: GCCCGAGTAGGTTCCGAGGGGGCATTCAGTGCGAATGCGATTGACAGCGTAGAATGAAGG
DNA 2: CCTTCATTCTACGCTGTCAATCGCATTCGCACTGAATGCCCCCTCGGAACCTACTCGGGC
- binding signal: 3.13 PBM z-score against 500 random probes

B8: NRC3_wobSeed120_DR4_G10A_o1 (dsDNA)
DNA 1: B7 DNA 1 with G10A, C14A
DNA 2: B7 DNA 2 with G47T, C51T
- binding signal: 3.08 PBM z-score against 500 random probes

B9: NRC3_wobSeed99_DR4_C23G_o1 (dsDNA)
DNA 1: GCTCTCGGAGGACACGAAAGGTGAGAGCTCGACATCGCGATTGACAGCGTAGAATGAAGG
DNA 2: CCTTCATTCTACGCTGTCAATCGCGATGTCGAGCTCTCACCTTTCGTGTCCTCCGAGAGC
- binding signal: 0.4 PBM z-score against 500 random probes

B10: NRC3_random_hg19_343_o1 (dsDNA)
DNA 1: GCCCTGGAGTGTCACTTAGCCACATTCTATTGGCCAGCGATTGACAGCGTAGAATGAAGG
DNA 2: CCTTCATTCTACGCTGTCAATCGCTGGCCAATAGAATGTGGCTAAGTGACACTCCAGGGC
- binding signal: 0.14 PBM z-score against 500 random probes

B11: NRC3_random_hg19_170_o1 (dsDNA)
DNA 1: GCCTTGCATTGTGGTTTGGATTTGCATTTCCCTAAAGCGATTGACAGCGTAGAATGAAGG
DNA 2: CCTTCATTCTACGCTGTCAATCGCTTTAGGGAAATGCAAATCCAAACCACAATGCAAGGC
- binding signal: 0.34 PBM z-score against 500 random probes

B12: NRC3_wobSeed2_DR0_C19A_o1 (dsDNA)
DNA 1: GCCCTAGTTGGTCAAGGTAACACACGCTATAGGTACGCGATTGACAGCGTAGAATGAAGG
DNA 2: CCTTCATTCTACGCTGTCAATCGCGTACCTATAGCGTGTGTTACCTTGACCAACTAGGGC
- binding signal: 0.48 PBM z-score against 500 random probes

B13: NRC3_wobSeed58_DR2_T12G_o1 (dsDNA)
DNA 1: GCATCGAAAGGGCGTGAGGTGAGTATACAGAAAGGCGCGATTGACAGCGTAGAATGAAGG
DNA 2: CCTTCATTCTACGCTGTCAATCGCGCCTTTCTGTATACTCACCTCACGCCCTTTCGATGC
- binding signal: 0.34 PBM z-score against 500 random probes

B14: NRC3_random_hg19_208_o1 (dsDNA)
DNA 1: GCAAGAGAGAGACACAATGGCTAAAGAAGGAAGAGTGCGATTGACAGCGTAGAATGAAGG
DNA 2: CCTTCATTCTACGCTGTCAATCGCACTCTTCCTTCTTTAGCCATTGTGTCTCTCTCTTGC
- binding signal: 0.26 PBM z-score against 500 random probes

B15: NRC3_wobSeed93_DR3_A14T_o1 (dsDNA)
DNA 1: GCAGTCAAAGTTCTTCTAGGTAACGTAAGATATGCTGCGATTGACAGCGTAGAATGAAGG
DNA 2: CCTTCATTCTACGCTGTCAATCGCAGCATATCTTACGTTACCTAGAAGAACTTTGACTGC
- binding signal: 0.13 PBM z-score against 500 random probes

B16: NRC3_random_hg19_463_o1 (dsDNA)
DNA 1: GCCAGGGAGAGAGCCTTGCAAAGATGGAACAATCAGGCGATTGACAGCGTAGAATGAAGG
DNA 2: CCTTCATTCTACGCTGTCAATCGCCTGATTGTTCCATCTTTGCAAGGCTCTCTCCCTGGC
- binding signal: -0.42 PBM z-score against 500 random probes

B17: NRC3_random_hg19_338_o1 (dsDNA)
DNA 1: GCACACAGAGAAACTCTTGCCAGTAGCAGTAGTACCGCGATTGACAGCGTAGAATGAAGG
DNA 2: CCTTCATTCTACGCTGTCAATCGCGGTACTACTGCTACTGGCAAGAGTTTCTCTGTGTGC
- binding signal: -0.32 PBM z-score against 500 random probes

B18: NRC3_wobSeed104_DR4_G7A_o1 (dsDNA)
DNA 1: GCTCTTATAGATCAATAGAGGTTAAGAAAGTGCGCTGCGATTGACAGCGTAGAATGAAGG
DNA 2: CCTTCATTCTACGCTGTCAATCGCAGCGCACTTTCTTAACCTCTATTGATCTATAAGAGC
- binding signal: 3.11 PBM z-score against 500 random probes

B19: NRC3_random_hg19_462_o1 (dsDNA)
DNA 1: GCCTGCTGCTTTCCTGATTACTGTAGCATCAGGTACGCGATTGACAGCGTAGAATGAAGG
DNA 2: CCTTCATTCTACGCTGTCAATCGCGTACCTGATGCTACAGTAATCAGGAAAGCAGCAGGC
- binding signal: -0.18 PBM z-score against 500 random probes

B20: NRC3_wobSeed138_DR5_A18T_o1 (dsDNA)
DNA 1: GCGATACAGGGTCAGCTTGAGGCCAGAGTATGGAAAGCGATTGACAGCGTAGAATGAAGG
DNA 2: CCTTCATTCTACGCTGTCAATCGCTTTCCATACTCTGGCCTCAAGCTGACCCTGTATCGC
- binding signal: 3.18 PBM z-score against 500 random probes

B21: NRC3_wobSeed18_DR0_T12G_o1 (dsDNA)
DNA 1: GCGATACAGGGGCAAGGCCAGAGTACGCGTATTGATGCGATTGACAGCGTAGAATGAAGG
DNA 2: CCTTCATTCTACGCTGTCAATCGCATCAATACGCGTACTCTGGCCTTGCCCCTGTATCGC
- binding signal: -0.01 PBM z-score against 500 random probes

B22: NRC3_wobSeed66_DR2_A14G_o1 (dsDNA)
DNA 1: GCAATACAGGGTCGCTAGGCCAGAGTAGGTACGAATGCGATTGACAGCGTAGAATGAAGG
DNA 2: CCTTCATTCTACGCTGTCAATCGCATTCGTACCTACTCTGGCCTAGCGACCCTGTATTGC
- binding signal: 0.28 PBM z-score against 500 random probes

B23: NRC3_random_hg19_329_o1 (dsDNA)
DNA 1: GCAGGGATGAATAGATCGAAGTTACTGCCCATTCAAGCGATTGACAGCGTAGAATGAAGG
DNA 2: CCTTCATTCTACGCTGTCAATCGCTTGAATGGGCAGTAACTTCGATCTATTCATCCCTGC
- binding signal: 0.08 PBM z-score against 500 random probes

B24: NRC3_random_hg19_42_o1 (dsDNA)
DNA 1: GCTTTGTGTGGGCTGTCATTGGATGCTCTGGTCATGGCGATTGACAGCGTAGAATGAAGG
DNA 2: CCTTCATTCTACGCTGTCAATCGCCATGACCAGAGCATCCAATGACAGCCCACACAAAGC
- binding signal: 0.44 PBM z-score against 500 random probes

B25: NRC3_wobSeed137_DR5_A29T_o1 (dsDNA)
DNA 1: GCATATGTAGGTTACATCCGGGTCATTCTGGCTATGGCGATTGACAGCGTAGAATGAAGG
DNA 2: CCTTCATTCTACGCTGTCAATCGCCATAGCCAGAATGACCCGGATGTAACCTACATATGC
- binding signal: 3.07 PBM z-score against 500 random probes

B26: NRC3_wobSeed137_DR5_G21A_o1 (dsDNA)
DNA 1: B25 DNA 1 with G21A, T29A
DNA 2: B25 DNA 2 with A32T, C40T
- binding signal: 0.38 PBM z-score against 500 random probes

B27: NRC3_wobSeed34_DR1_A24C_o1 (dsDNA)
DNA 1: GCATCGAAAGGTCGAAGGTGAGTCTACCCACCCGAAGCGATTGACAGCGTAGAATGAAGG
DNA 2: CCTTCATTCTACGCTGTCAATCGCTTCGGGTGGGTAGACTCACCTTCGACCTTTCGATGC
- binding signal: 3.17 PBM z-score against 500 random probes

B28: NRC3_wobSeed34_DR1_G22C_o1 (dsDNA)
DNA 1: B27 DNA 1 with G22C, C24A
DNA 2: B27 DNA 2 with G37T, C39G
- binding signal: 3.06 PBM z-score against 500 random probes

B29: NRC3_random_hg19_157_o1 (dsDNA)
DNA 1: GCCCAAGATCTTGCCACTGCACTCCAGCCTGGATGAGCGATTGACAGCGTAGAATGAAGG
DNA 2: CCTTCATTCTACGCTGTCAATCGCTCATCCAGGCTGGAGTGCAGTGGCAAGATCTTGGGC
- binding signal: -0.24 PBM z-score against 500 random probes

B30: NRC3_wobSeed28_DR1_A21T_o1 (dsDNA)
DNA 1: GCCCTACTGGGCCAAAGGTCTTTGATTCCAATGCTCGCGATTGACAGCGTAGAATGAAGG
DNA 2: CCTTCATTCTACGCTGTCAATCGCGAGCATTGGAATCAAAGACCTTTGGCCCAGTAGGGC
- binding signal: -0.05 PBM z-score against 500 random probes

B31: NRC3_random_hg19_246_o1 (dsDNA)
DNA 1: GCCTCCAGACTGCCTTCAGATTCAAGACGCAAAGGCGCGATTGACAGCGTAGAATGAAGG
DNA 2: CCTTCATTCTACGCTGTCAATCGCGCCTTTGCGTCTTGAATCTGAAGGCAGTCTGGAGGC
- binding signal: -0.41 PBM z-score against 500 random probes

B32: NRC3_wobSeed113_DR4_G20C_o1 (dsDNA)
DNA 1: GCATATGTAGGTTAGCTGGCGTCATTCAGACTAGGCGCGATTGACAGCGTAGAATGAAGG
DNA 2: CCTTCATTCTACGCTGTCAATCGCGCCTAGTCTGAATGACGCCAGCTAACCTACATATGC
- binding signal: -0.13 PBM z-score against 500 random probes

B33: NRC3_wobSeed117_DR4_A9C_o1 (dsDNA)
DNA 1: GCCGTCAACGTTCAACTAAGGTAACGTAAAGCACGCGCGATTGACAGCGTAGAATGAAGG
DNA 2: CCTTCATTCTACGCTGTCAATCGCGCGTGCTTTACGTTACCTTAGTTGAACGTTGACGGC
- binding signal: 0.48 PBM z-score against 500 random probes
